The values below come from PMC9890132 (Molecular Cancer Therapeutics, 2022).

Assay [1] concerns the target cynomolgus monkey FolRα overexpressed on CHO cells (Macaca fascicularis, UniProt A0A2K5U044). The assay can be described thus: flow cytometry on cells. On the technique in general: A flow cytometer gives signals particle by particle.
Assay [2] deals with Recombinantly-expressed FolRα extracellular domain (Acro Biosystems) (Homo sapiens, UniProt P15328). The experiment in a line: SPR. For orientation: In SPR one partner is held on a chip, and binding of the other changes the refractive index at the surface.

B1: anti-FolRα antibody SP8166 (antibody, V domains shown)
VH: EVQLVESGGGLVQPGGSLRLSCAASGFNIRTQSIHWVRQAPGKGLEWIGDIFPIDGITDYADSVKGRFTISADTSKNTAYLQMNSLRAEDTAVYYCARGSWSWPSGMDYYLDYWGQGTLVTVSS
VL: not shown
What is called Kd is the concentration at which binding is half-saturated. Take B1: the binding result in assay [1] is “binds”. In addition, the Kd in assay [2] is 2.3 nM.
